{"source": "paper PMC10607609", "about": "“The Functionality of IbpA from Acholeplasma laidlawii Is Governed by Dynamic Rearrangement of Its Globular–Fibrillar Quaternary Structure” (International Journal of Molecular Sciences, 2023)", "molecules": {"B1": {"name": "full-length AlIbpA_(His6), small heat shock protein IbpA from Acholeplasma laidlawii (natural protein, UniProt A9NFB2 1-137, looked up)", "chain": "MLSLLNKNRSFFDDFFEDFNVLNPVTTSNLMRTDIKETQNGYSLSVELPGFKKEDVKVSLEDGYLTIEAHTSKNSETKDQATKYIRKERYEGTMKRSYYVGNLHLDEINGTFENGMLHIELPKETKKEPEKRYLELK", "modifications": "biotin (EZ-Link NHS-PEG4-biotin) where it was the protein immobilised on the streptavidin biosensor", "notes": "Forms globular and fibrillar oligomers; also called HSP20; sHSP; source: E. coli BL21 (DE3), purified (Ni-NTA agarose)"}, "B2": {"name": "AlIbpAΔN12_(His6), AlIbpA lacking 12 N-terminal amino acid residues (domain or fragment, Acholeplasma laidlawii, UniProt A9NFB2 13-137, looked up)", "chain": "DDFFEDFNVLNPVTTSNLMRTDIKETQNGYSLSVELPGFKKEDVKVSLEDGYLTIEAHTSKNSETKDQATKYIRKERYEGTMKRSYYVGNLHLDEINGTFENGMLHIELPKETKKEPEKRYLELK", "notes": "The limit 13 is worked out from 'removal of 12 N-terminal amino acid residuals'; Forms mostly fibrils; also called AlIbpA∆N12_(His6); AlIbpAN12_(His6); source: E. coli BL21 (DE3), purified (Ni-NTA agarose)"}}, "key": {"[1]": {"target": "full-length AlIbpA_(His6), small heat shock protein IbpA from Acholeplasma laidlawii (Acholeplasma laidlawii) (UniProt A9NFB2)", "assay": "BLI; BLItz; biotinylated AlIbpA_(His6) loaded on a streptavidin biosensor (2.0 nm); analyte 10 µM in PBS pH 7.4; 300 s association, 300 s dissociation; BSA control subtracted"}, "[2]": {"target": "AlDnaKST, recombinant C-terminally StrepII-tagged DnaK (HSP70) from Acholeplasma laidlawii (Acholeplasma laidlawii) (UniProt A9NFN8)", "assay": "BLI; BLItz; biotinylated AlDnaKST or AlClpBST loaded on a streptavidin biosensor (2.0 nm); analyte in PBS pH 7.4; 300 s association, 300 s dissociation; BSA control subtracted"}, "[3]": {"target": "AlClpBST, recombinant C-terminally StrepII-tagged ClpB (HSP100) from Acholeplasma laidlawii (Acholeplasma laidlawii)", "assay": "BLI; BLItz; biotinylated AlDnaKST or AlClpBST loaded on a streptavidin biosensor (2.0 nm); analyte in PBS pH 7.4; 300 s association, 300 s dissociation; BSA control subtracted"}, "[4]": {"target": "T1, AlDnaKST, recombinant C-terminally StrepII-tagged DnaK (HSP70) from Acholeplasma laidlawii (Acholeplasma laidlawii, UniProt A9NFN8 1-610, biotin (EZ-Link NHS-PEG4-biotin) where it was the protein immobilised on the streptavidin biosensor)", "T1 construct": "DnaK (HSP70) of Acholeplasma laidlawii, from a synthetic gene dnaK cloned in pET-28a(+); Plasmid pET-28a-AlDnaKST; source: E. coli BL21 (DE3), purified (Strep-tactin agarose); not shown: StrepII, C-terminal, kept", "assay": "BLI; BLItz; biotinylated AlIbpA_(His6) loaded on a streptavidin biosensor (2.0 nm); analyte 10 µM in PBS pH 7.4; 300 s association, 300 s dissociation; BSA control subtracted", "conditions": "both partners purified"}, "[5]": {"target": "T1, AlDnaKST, recombinant C-terminally …", "assay": "BLI; BLItz; biotinylated AlDnaKST or AlClpBST loaded on a streptavidin biosensor (2.0 nm); analyte in PBS pH 7.4; 300 s association, 300 s dissociation; BSA control subtracted", "conditions": "both partners purified"}}, "data": [{"molecule": "AlClpBST, recombinant C-terminally StrepII-tagged ClpB (HSP100) from Acholeplasma laidlawii (natural protein)", "values": [{"measurement": "Kd", "setting": "[1]", "result": 1.2, "unit": "µM"}, {"measurement": "Kd", "setting": "[2]", "result": 20.3, "unit": "µM"}]}, {"molecule": "AlIbpA∆N12_(His6)–insulin complex, chemically cross-linked with glutaraldehyde (from UniProt A9NFB2 13-137)", "values": [{"measurement": "fold increase in KD against AlIbpA∆N12 (His6) alone", "setting": "[2]", "result": 2, "unit": "fold"}]}, {"molecule": "human insulin (ligand)", "values": [{"measurement": "Kd", "setting": "[1]", "result": 0.1, "unit": "µM"}]}, {"molecule": "B1", "values": [{"measurement": "Kd", "setting": "[3]", "result": 0.2, "unit": "µM"}, {"measurement": "Kd", "setting": "[4]", "result": 3.1, "unit": "µM"}, {"measurement": "Kd", "setting": "[5]", "result": 0.1, "unit": "µM"}]}, {"molecule": "B2", "values": [{"measurement": "fold decrease of binding affinity against full-length AlIbpA_(His6)", "setting": "[5]", "result": 15, "unit": "fold"}]}]}
